T1: GST HPV16 E7CR1CR2 (human papillomavirus type 16 (HPV16), UniProt P03129 1-38)
T1 construct: E7 protein of human papillomavirus type 16, CR1 and CR2 domains; also called the combined CR domains; source: E. coli BL21pLysS, purified (glutathione-Sepharose)
T1 chain: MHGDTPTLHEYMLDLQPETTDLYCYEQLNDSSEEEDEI

B1: human retinoblastoma tumor suppressor protein pRb (natural protein, human (endogenous in Jurkat), UniProt P06400 1-928, looked up)
chain: MPPKTPRKTAATAAAAAAEPPAPPPPPPPEEDPEQDSGPEDLPLVRLEFEETEEPDFTALCQKLKIPDHVRERAWLTWEKVSSVDGVLGGYIQKKKELWGICIFIAAVDLDEMSFTFTELQKNIEISVHKFFNLLKEIDTSTKVDNAMSRLLKKYDVLFALFSKLERTCELIYLTQPSSSISTEINSALVLKVSWITFLLAKGEVLQMEDDLVISFQLMLCVLDYFIKLSPPMLLKEPYKTAVIPINGSPRTPRRGQNRSARIAKQLENDTRIIEVLCKEHECNIDEVKNVYFKNFIPFMNSLGLVTSNGLPEVENLSKRYEEIYLKNKDLDARLFLDHDKTLQTDSIDSFETQRTPRKSNLDEEVNVIPPHTPVRTVMNTIQQLMMILNSASDQPSENLISYFNNCTVNPKESILKRVKDIGYIFKEKFAKAVGQGCVEIGSQRYKLGVRLYYRVMESMLKSEEERLSIQNFSKLLNDNIFHMSLLACALEVVMATYSRSTSQNLDSGTDLSFPWILNVLNLKAFDFYKVIESFIKAEGNLTREMIKHLERCEHRIMESLAWLSDSPLFDLIKQSKDREGPTDHLESACPLNLPLQNNHTAADMYLSPVRSPKKKGSTTRVNSTANAETQATSAFQTQKPLKSTSLSLFYKKVYRLAYLRLNTLCERLLSEHPELEHIIWTLFQHTLQNEYELMRDRHLDQIMMCSMYGICKVKNIDLKFKIIVTAYKDLPHAVQETFKRVLIKEEEYDSIIVFYNSVFMQRLKTNILQYASTRPPTLSPIPHIPRSPYKFPSSPLRIPGGNIYISPLKSPYKISEGLPTPTKMTPRSRILVSIGESFGTSEKFQKINQMVCNSDRVLKRSAEGSNPPKPLKKLRFDIEGSDEADGSKHLPGESKFQQKLAEMTSTRTRMQKQKMNDSMDTSNKEEK
notes: retinoblastoma protein pRb, human, endogenous in Jurkat cell nuclear extract; also called human pRb; source: endogenous, Jurkat cell nuclear extract

Experiments:
pRb = assay: GST pull-down, Western blot with anti-pRb antibody, densitometry; conditions: binding normalized to GSTE7 protein; wild type CPV-2 E7 GST fusion set to 100%; parent: 100
GST HPV16 E7CR1CR2 = target: T1, GST HPV16 E7CR1CR2; assay: pull-down; 5 µg GST fusion protein with 50 µg Jurkat cell nuclear extract, 1 h at 4°C in 20 mM Hepes/150 mM KCl/4 mM MgCl2/1 mM EDTA/0.02% Nonidet P-40/10% glycerol; glutathione-Sepharose beads; Western blot for pRb and GST, densitometry normalised to GSTE7, wild type CPV-2 E7 set to 100%; conditions: one partner purified

| Molecule | percent of parent (pRb) [%] | fold pRb bound against the HPV16 E7 carboxyl-terminus domain (GST HPV16 E7CR1CR2) [fold] |
| --- | --- | --- |
| GST CPV-2 E7 wild type fusion protein S26C | 147 | – |
| GST CPV-2 E7 wild type fusion protein S26G | 99 | – |
| B1 | – | 6 |

Reference: PMC2932728, “The Canine Papillomavirus and Gamma HPV E7 Proteins Use an Alternative Domain to Bind and Destabilize the Retinoblastoma Protein” (PLoS Pathogens, 2010)
